The values that follow come from patent US20240034757A1 (OXFORD UNIVERSITY INNOVATION, published 2024).

B2: P983_AMBCA (other)
chain: EDTGTEDDFDYGNTGCPFPVLGNYKSNMTKPVGCKNKCGSGYEVLNDTTPCYVIDQKVFNNMVPLRQYSKCPLGFCENGECKPNDQAEDCYKGREEQK
B3: CXCL9_HUMAN (ligand)
chain: TPVVRKGRCSCISTNQGTIHLQSLKDLKQFAPSPSCEKIEIIATLKNGVQTCLNPDSADVKELIKKWEKQVSQKKKQKNGKKHQKKKVLKVRKSQRSRQKKTT

Read-outs that look alike come from different tables or passages of the source.

For one assay, the target named is T1, P467_RHIPU (Rhipicephalus pulchellus, UniProt L7M8Z8 22-127).
T1 sequence: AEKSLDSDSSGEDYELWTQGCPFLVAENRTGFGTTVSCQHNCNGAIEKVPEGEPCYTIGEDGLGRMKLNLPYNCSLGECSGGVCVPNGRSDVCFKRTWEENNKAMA
In words: BLI.

Another assay addresses T2, P546_AMBCA (Amblyomma cajennense, UniProt A0A023FBW7 22-118).
T2 sequence: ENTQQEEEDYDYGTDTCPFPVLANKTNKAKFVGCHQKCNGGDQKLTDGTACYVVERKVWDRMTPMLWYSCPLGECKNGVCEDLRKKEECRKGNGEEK
The assay is described as follows: BLI.

The target of another assay is T3, P1180_AMBTR (Amblyomma triste, UniProt A0A023G6B6 26-116).
T3 sequence: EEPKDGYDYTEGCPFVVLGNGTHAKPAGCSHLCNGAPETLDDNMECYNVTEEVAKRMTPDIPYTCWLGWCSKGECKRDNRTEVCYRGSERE
In words: BLI.

Another assay addresses T4, P1181_AMBMA (Amblyomma maculatum, UniProt G3MIX6 26-115).
T4 sequence: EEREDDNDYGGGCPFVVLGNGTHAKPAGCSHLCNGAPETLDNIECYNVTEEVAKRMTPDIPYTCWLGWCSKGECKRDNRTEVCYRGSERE
The assay is described as follows: BLI.

A further assay addresses T5, P1182_AMBMA (Amblyomma maculatum, UniProt G3MJ83 27-115).
T5 sequence: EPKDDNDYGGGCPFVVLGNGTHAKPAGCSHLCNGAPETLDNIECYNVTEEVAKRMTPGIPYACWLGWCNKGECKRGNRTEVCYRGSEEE
The assay is described as follows: BLI.

The target of another assay is T6, P1183_AMBTR (Amblyomma triste, UniProt A0A023G9N9 26-115).
T6 sequence: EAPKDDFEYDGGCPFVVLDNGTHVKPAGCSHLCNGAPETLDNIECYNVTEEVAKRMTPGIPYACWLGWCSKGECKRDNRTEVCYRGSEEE
The assay is described as follows: BLI.

Assay [1] deals with T7, P1243_AMBAM (Amblyomma americanum, UniProt A0A0C9S461 26-123).
T7 sequence: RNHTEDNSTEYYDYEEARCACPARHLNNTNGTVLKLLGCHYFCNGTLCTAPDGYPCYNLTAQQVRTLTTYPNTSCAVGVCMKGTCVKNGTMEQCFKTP
The assay is described as follows: BLI.

In a further assay the target is T8, P672_RHIPU (Rhipicephalus pulchellus, UniProt L7MC74 22-125).
T8 sequence: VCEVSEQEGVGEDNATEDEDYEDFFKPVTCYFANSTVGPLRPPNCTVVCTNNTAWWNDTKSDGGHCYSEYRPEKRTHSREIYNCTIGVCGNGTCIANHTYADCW
The assay is described as follows: BLI.

For the next assay, the target named is T9, P974_AMBCA (Amblyomma cajennense, UniProt A0A023FDY8 22-118).
T9 sequence: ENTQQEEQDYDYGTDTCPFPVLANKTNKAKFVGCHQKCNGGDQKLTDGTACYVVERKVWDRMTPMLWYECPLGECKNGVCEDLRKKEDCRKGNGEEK
In words: BLI.

The assay “P983_AMBCA” concerns the target B2. In words: BLI.
The target in a further assay is T10, P985_AMBPA (Amblyomma parvum, UniProt A0A023FT45 25-132).
T10 sequence: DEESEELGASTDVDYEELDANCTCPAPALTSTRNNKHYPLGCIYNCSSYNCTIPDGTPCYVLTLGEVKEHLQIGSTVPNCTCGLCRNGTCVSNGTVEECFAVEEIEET
The assay is described as follows: BLI.

A further assay concerns the target T11, P991_AMBCA (Amblyomma cajennense, UniProt A0A023FFD0 29-136).
T11 sequence: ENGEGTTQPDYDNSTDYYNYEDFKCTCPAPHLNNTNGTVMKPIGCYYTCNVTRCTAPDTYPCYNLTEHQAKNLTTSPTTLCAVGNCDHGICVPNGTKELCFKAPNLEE
In words: BLI.

Assay [2] has as its target T7, P1243_AMBAM. The assay is described as follows: BLI. The source holds these as a separate data set.
The next assay has as its target BK1.1FITC. In words: fluorescence polarisation, 50 nM peptide.
The next assay concerns the target CCL2_HUMAN (human, UniProt P13500 24-99). The assay is described as follows: cell-based or functional assay.
The next assay concerns the target T12, P1134_IXORI (Ixodes ricinus, UniProt A0A0K8RAI0 32-135).
T12 sequence: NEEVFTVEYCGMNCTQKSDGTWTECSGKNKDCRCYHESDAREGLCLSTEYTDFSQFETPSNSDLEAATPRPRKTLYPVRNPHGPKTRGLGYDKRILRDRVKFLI
The assay is described as follows: BLI.

For the next assay, the target named is T13, CXCL1_HUMAN (human, UniProt P09341 35-107).
T13 sequence: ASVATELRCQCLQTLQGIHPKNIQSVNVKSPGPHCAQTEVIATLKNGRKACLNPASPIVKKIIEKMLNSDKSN
In words: BLI.

A further assay has as its target T14, CXCL3_HUMAN (human, UniProt P19876 35-107).
T14 sequence: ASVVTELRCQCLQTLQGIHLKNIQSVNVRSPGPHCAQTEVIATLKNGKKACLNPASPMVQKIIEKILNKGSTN
In words: BLI.

The next assay addresses T15, CXCL8_HUMAN (human, UniProt P10145 28-99).
T15 sequence: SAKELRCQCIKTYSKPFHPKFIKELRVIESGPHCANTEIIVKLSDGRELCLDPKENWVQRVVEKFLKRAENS
In words: BLI.

The target in a further assay is T16, CXCL2_HUMAN (human, UniProt P19875 35-107).
T16 sequence: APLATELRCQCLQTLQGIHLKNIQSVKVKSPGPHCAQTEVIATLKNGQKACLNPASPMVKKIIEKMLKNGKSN
In words: BLI.

The target in the next assay is T17, CXCL5_HUMAN (human, UniProt P42830 41-114).
T17 sequence: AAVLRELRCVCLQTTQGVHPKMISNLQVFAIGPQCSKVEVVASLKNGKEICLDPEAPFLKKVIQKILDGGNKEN
The assay is described as follows: BLI.

A further assay addresses T18, CXCL6_HUMAN (human, UniProt P80162 38-114).
T18 sequence: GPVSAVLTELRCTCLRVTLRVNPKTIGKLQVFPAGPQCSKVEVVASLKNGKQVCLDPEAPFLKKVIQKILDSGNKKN
In words: BLI.

The target in the assay “CXCL9_HUMAN” is B3. The assay is described as follows: BLI.
In the next assay the target is CXCL12_HUMAN (human, UniProt P48061 22-89). The assay is described as follows: BLI.
The target of the next assay is T19, CXCL13_HUMAN (human, UniProt O43927 23-109).
T19 sequence: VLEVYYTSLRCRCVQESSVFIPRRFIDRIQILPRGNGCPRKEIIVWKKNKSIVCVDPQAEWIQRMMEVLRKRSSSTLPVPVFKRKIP
In words: BLI.

Chain of CCL2_HUMAN (P13500 24-99 limits assumed): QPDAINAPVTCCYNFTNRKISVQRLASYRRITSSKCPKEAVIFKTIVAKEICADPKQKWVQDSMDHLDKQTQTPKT
Chain of CXCL12_HUMAN (P48061 22-89 limits assumed): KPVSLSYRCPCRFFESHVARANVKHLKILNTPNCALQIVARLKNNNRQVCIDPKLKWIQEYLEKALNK

B1: CCL3L1_HUMAN (ligand)
chain: APLAADTPTACCFSYTSRQIPQNFIADYFETSSQCSKPSVIFLTKRGRQVCADPSEEWVQKYVSDLELSA
In the case of B1, the Kd is 0.524 nM in the assay with P467_RHIPU; 15 nM with P546_AMBCA; 2.2 nM with P1180_AMBTR; 3.3 nM with P1181_AMBMA; 9.5 nM in the assay with P1182_AMBMA; 110 nM in the assay with P1183_AMBTR. For the same molecule, the Kd in the assay with P1243_AMBAM [1] turned out to be 5.05 nM; with P672_RHIPU, 2.7 nM; with P974_AMBCA it was 13.1 nM; with P983_AMBCA, 2.1 nM; in the assay with P985_AMBPA, 7.5 nM; with P991_AMBCA, 1.4 nM. The molecule also showed a dissociation constant (Kd) with P1243_AMBAM [2] of 5.04 nM. Further, the binding result in the assay with BK1.1FITC is on record as “no binding (tested: 1 µM)”.

In the case of B2, in the assay with CCL2_HUMAN, the “IC50, THP1 cell migration” value came out at 5.95 nM.

For the molecule B3, in the assay with P1134_IXORI, the binding result is reported as “no binding (tested: 300 nM)”.

B4: CCL14_HUMAN (ligand)
chain: TESSSRGPYHPSECCFTYTTYKIPRQRIMDYYETNSQCSKPGIVFITKRGHSVCTNPSDKWVQDYIKDMKEN
For the molecule B4, the dissociation constant (Kd) in the assay with P467_RHIPU turned out to be 4.13 nM; with P546_AMBCA, 28 nM; with P1180_AMBTR, 4.4 nM; with P1181_AMBMA, 47 nM; with P1182_AMBMA it was 50 nM; with P1243_AMBAM [1], 0.816 nM. Besides, the Kd with P672_RHIPU is 5.5 nM; with P974_AMBCA, 49.1 nM; with P983_AMBCA, 81 nM; with P991_AMBCA, 0.43 nM. Besides, in the assay with BK1.1FITC, the binding result was “no binding (tested: 1 µM)”.

B5: CCL13_HUMAN (ligand)
chain: not shown
As to B5, the dissociation constant (Kd) turned out to be 2.56 nM in the assay with P467_RHIPU; 13 nM with P546_AMBCA; 9 nM in the assay with P1180_AMBTR; 19 nM with P1181_AMBMA; 56 nM with P1182_AMBMA; 5.7 nM with P1183_AMBTR. The dissociation constant (Kd) with P1243_AMBAM [1] was determined as 0.788 nM; with P974_AMBCA, 22.9 nM; with P983_AMBCA it was 17 nM; with P985_AMBPA, 89 nM; with P991_AMBCA it was 0.419 nM. Also, in the assay with BK1.1FITC, the binding result is recorded as “no binding (tested: 1 µM)”.

B6: P1156_IXORI (other)
chain: ADDDNELFTVQYCGMNCTKDEGGTWTGCTGKKEGCKCYHESGKNYGLCLSTEYTDFSQYGNPSDSEIEAAKPKRSDTLSH
For B6, the “RT” value came to 35.7 min with CXCL1_HUMAN; 5.76 min with CXCL3_HUMAN; 46.7 min with CXCL8_HUMAN; 4.2 min with CXCL2_HUMAN; 5.33 min in the assay with CXCL5_HUMAN; 3.23 min in the assay with CXCL6_HUMAN. Further, the binding result in the assay with CXCL9_HUMAN, with CXCL12_HUMAN and with CXCL13_HUMAN was “no binding (tested: 300 nM)” in each case.

B7: CCL23_HUMAN (ligand)
chain: RVTKDAETEFMMSKLPLENPVLLDRFHATSADCCISYTPRSIPCSLLESYFETNSECSKPGVIFLTKKGRRFCANPSDKQVQVCMRMLKLDTRIKTRKN
As for B7, in the assay with BK1.1FITC, the binding result is “no binding (tested: 1 µM)”.
